Patent US20210371503A1

B1: MnC4t1p1_A10 (antibody, V domains shown)
VH: QLQVQESGPGLVKPSETLSLTCTVSGASISSNHYFWGWIRQPPGKGLAWIGSMHYSGSTYYNPSLKSRVTISVDTSKNQLSLKLSSVTAADTAVYYCARGVNYYDRNGYYRNDGFDIRGQGTMVTVSS
VL: DIQMTQSPSSLSASVGDRVTITCRASQGIRNDLGWYEQKPGKAPKRLIYAASSLESGVPSRFSGSGSGTEFTLTISSLQPEDFATYYCLQHNTYPFTFGPGTRVDIK
B2: MnC4t2p1_D10 (antibody, V domains shown)
VH: QLQVQESGPGLVKPSETLSLTCTVSGASISSNHYFWGWIRQPPGKGLAWIGSMHYSGSTYYNPSLKSRVTISVDTSKNQLSLKLSSVTAADTAVYYCARGVNYYDRNGYYRNDGFDIRGQGTMVTVSS
VL: DIQMTQSPSSLSASVGDRVTITCRASQGIRNDLGWYEQKPGKAPKRLIYAASSLESGVPSRFSGSGSGTEFTLTISSLQPEDFATYYCLQHNTYPFTFGPGTRVDIK
B3: MnC4t2p1_F5 (antibody, V domains shown)
VH: QLQVQESGPGLVKPSETLSLTCTVSGASISSNHYFWGWIRQPPGKGLAWIGSMHYSGSTYYNPSLKSRVTISVDTSKNQLSLKLSSVTAADTAVYYCARGVNYYDRNGYYRNDGFDIRGQGTMVTVSS
VL: DIQMTQSPSSLSASVGDRVTITCRASQGIRNDLGWYEQKPGKAPKRLIYAASSLESGVPSRFSGSGSGTEFTLTISSLQPEDFATYYCLQHNTYPFTFGPGTRVDIK

Target: monomeric (SARS-CoV-2 S ectodomain monomer) (SARS-CoV-2)
Assay: ELISA, coated monomeric S ectodomain [cont'd]

Row | Binder | EC50 [µg/mL]
1 | B1 | < 100
2 | B2 | < 100
3 | B3 | < 100
